Experiments:
corin WT = target: T1, corin WT (Homo sapiens, UniProt Q9Y5Q5); assay: PCSK6-mediated corin activation in HEK293 cells, corin WT; format: cell-based; settings: Western
T1 construct: expressed in transfected cells; host or cells: HEK293
T1 sequence (Q9Y5Q5 1-1042): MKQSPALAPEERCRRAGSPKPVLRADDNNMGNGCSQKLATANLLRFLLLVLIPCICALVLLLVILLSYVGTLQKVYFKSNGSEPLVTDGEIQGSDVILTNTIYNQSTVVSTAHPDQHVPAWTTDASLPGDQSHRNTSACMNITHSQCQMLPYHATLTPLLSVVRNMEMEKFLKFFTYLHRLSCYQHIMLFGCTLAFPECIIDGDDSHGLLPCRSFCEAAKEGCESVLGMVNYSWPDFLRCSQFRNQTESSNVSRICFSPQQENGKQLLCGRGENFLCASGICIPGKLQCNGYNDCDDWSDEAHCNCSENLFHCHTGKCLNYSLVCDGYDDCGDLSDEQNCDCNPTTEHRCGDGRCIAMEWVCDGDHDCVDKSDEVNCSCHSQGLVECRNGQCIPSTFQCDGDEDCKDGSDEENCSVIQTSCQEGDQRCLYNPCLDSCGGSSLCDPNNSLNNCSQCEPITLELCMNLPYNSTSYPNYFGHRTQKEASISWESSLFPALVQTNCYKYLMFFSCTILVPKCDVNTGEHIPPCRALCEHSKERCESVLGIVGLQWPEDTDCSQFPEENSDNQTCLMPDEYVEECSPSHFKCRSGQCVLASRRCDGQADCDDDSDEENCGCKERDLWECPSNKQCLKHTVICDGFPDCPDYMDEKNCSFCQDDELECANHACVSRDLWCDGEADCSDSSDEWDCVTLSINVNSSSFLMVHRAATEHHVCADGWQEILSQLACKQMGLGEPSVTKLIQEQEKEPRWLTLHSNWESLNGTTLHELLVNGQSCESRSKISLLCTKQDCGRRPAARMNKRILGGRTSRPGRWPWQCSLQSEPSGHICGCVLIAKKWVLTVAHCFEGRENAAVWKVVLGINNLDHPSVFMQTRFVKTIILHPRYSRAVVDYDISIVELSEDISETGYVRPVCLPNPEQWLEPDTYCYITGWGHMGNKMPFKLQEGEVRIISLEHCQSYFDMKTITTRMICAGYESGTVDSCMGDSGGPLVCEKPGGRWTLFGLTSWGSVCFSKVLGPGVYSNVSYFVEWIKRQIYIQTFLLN
Source text: (§1) Plasmids expressing human corin WT and mutants R801A, S985A, T555I, Q568P, T555I/Q568P, K317E, S472G and R539C were reported previously. Dong, N. et al., J Biol Chem 289, 17909-17916 (2014); Knappe et al., J Biol Chem 278, 52363-52370 (2003); Wu et al., J Biol Chem 277, 16900-16905. (2002). Plasmids expressing human PCSK1-9 were made by cloning respective cDNAs into pcNDA3.1 vector. Recombinant corin and PCSK proteins encoded by these plasmids contained a C-terminal V5 or flag tag for protein detection in Western blotting.
(§2) HEK293 and HL-1 cells were transfected with corin or PCSK6 expression plasmids. After 48-72 h, cells were lysed in a buffer containing 25 mM Tris-HCl, pH 7.4, 150 mM NaCl, 1 mM EDTA, 1% (v/v) NP-40, and 1% (v/v) protease inhibitor cocktail. Recombinant corin and PCSK6 proteins were immunoprecipitated with an anti-V5 or anti-flag antibody. Western blotting was carried out to analyze corin expression and activation or PCSK6 expression with or without reducing agents. Percentage of corin activation (corin-p vs. corin fragments) was quantified by densitometric analysis of Western blots.

corin mutant R539C = target: T2, corin mutant R539C (Homo sapiens, UniProt Q9Y5Q5, R539C); assay: PCSK6-mediated corin activation in HEK293 cells, corin mutant R539C; format: cell-based; settings: Western, densitometry
T2 construct: expressed in transfected cells; host or cells: HEK293
T2 sequence (Q9Y5Q5 1-1042 R539C): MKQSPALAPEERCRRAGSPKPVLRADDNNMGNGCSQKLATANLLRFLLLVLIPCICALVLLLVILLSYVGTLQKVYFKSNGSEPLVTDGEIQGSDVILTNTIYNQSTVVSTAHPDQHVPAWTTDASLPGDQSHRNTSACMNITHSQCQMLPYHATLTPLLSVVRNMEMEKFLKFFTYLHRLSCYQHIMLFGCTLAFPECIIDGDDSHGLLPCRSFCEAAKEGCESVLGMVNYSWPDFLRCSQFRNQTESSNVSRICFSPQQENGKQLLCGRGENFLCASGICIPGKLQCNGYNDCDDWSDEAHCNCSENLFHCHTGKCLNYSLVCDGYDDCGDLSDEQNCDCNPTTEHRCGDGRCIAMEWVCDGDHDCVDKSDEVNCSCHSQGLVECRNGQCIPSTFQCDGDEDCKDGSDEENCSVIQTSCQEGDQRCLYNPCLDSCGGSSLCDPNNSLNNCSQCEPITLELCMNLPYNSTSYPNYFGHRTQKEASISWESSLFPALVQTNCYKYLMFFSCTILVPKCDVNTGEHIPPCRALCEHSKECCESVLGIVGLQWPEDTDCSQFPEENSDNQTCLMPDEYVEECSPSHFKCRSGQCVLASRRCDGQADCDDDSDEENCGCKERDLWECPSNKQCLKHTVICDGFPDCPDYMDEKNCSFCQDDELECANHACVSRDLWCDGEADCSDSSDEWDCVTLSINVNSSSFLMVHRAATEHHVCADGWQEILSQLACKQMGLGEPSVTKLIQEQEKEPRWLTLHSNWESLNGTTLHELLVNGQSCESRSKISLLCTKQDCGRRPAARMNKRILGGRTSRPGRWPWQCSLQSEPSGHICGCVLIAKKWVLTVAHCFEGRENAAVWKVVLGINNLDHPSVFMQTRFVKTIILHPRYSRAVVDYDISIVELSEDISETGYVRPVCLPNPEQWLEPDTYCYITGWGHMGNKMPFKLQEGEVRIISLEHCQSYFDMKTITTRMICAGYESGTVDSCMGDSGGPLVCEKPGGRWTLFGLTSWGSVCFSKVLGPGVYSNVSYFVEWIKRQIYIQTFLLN
Source text: as §1, §2

B1: proprotein convertase subtilisin/kexin-6 (protein, listed as Homo sapiens)
chain: MPPRAPPAPGPRPPPRAAAATDTAAGAGGAGGAGGAGGPGFRPLAPRPWRWLLLLALPAACSAPPPRPVYTNHWAVQVLGGPAEADRVAAAHGYLNLGQIGNLEDYYHFYHSKTFKRSTLSSRGPHTFLRMDPQVKWLQQQEVKRRVKRQVRSDPQALYFNDPIWSNMWYLHCGDKNSRCRSEMNVQAAWKRGYTGKNVVVTILDDGIERNHPDLAPNYDSYASYDVNGNDYDPSPRYDASNENKHGTRCAGEVAASANNSYCIVGIAYNAKIGGIRMLDGDVTDVVEAKSLGIRPNYIDIYSASWGPDDDGKTVDGPGRLAKQAFEYGIKKGRQGLGSIFVWASGNGGREGDYCSCDGYTNSIYTISVSSATENGYKPWYLEECASTLATTYSSGAFYERKIVTTDLRQRCTDGHTGTSVSAPMVAGIIALALEANSQLTWRDVQHLLVKTSRPAHLKASDWKVNGAGHKVSHFYGFGLVDAEALVVEAKKWTAVPSQHMCVAASDKRPRSIPLVQVLRTTALTSACAEHSDQRVVYLEHVVVRTSISHPRRGDLQIYLVSPSGTKSQLLAKRLLDLSNEGFTNWEFMTVHCWGEKAEGQWTLEIQDLPSQVRNPEKQGKLKEWSLILYGTAEHPYHTFSAHQSRSRMLELSAPELEPPKAALSPSQVEVPEDEEDYTAQSTPGSANILQTSVCHPECGDKGCDGPNADQCLNCVHFSLGSVKTSRKCVSVCPLGYFGDTAARRCRRCHKGCETCSSRAATQCLSCRRGFYHHQEMNTCVTLCPAGFYADESQKNCLKCHPSCKKCVDEPEKCTVCKEGFSLARGSCIPDCEPGTYFDSELIRCGECHHTCGTCVGPGREECIHCAKNFHFHDWKCVPACGEGFYPEEMPGLPHKVCRRCDENCLSCAGSSRNCSRCKTGFTQLGTSCITNHTCSNADETFCEMVKSNRLCERKLFIQFCCRTCLLAG
modifications: C-terminal FLAG tag
- PCSK6-mediated activation cleavage (corin WT): detected
- reduction in PCSK6-mediated corin activation compared with WT corin (corin mutant R539C): 62%
